Among the data in the Human Domainome abundance scans (Beltran et al. 2025) are abundance fitness values, retold here.

B1: Unconventional myosin-Ie, residues 1051 to 1108; numbered along this chain, Q12965 (parent)
chain: PQVPQCKALYAYDAQDTDELSFNANDIIDIIKEDPSGWWTGRLRGKQGLFPNNYVTKI

± gives the uncertainty stated by the source.

The variants in the data set derive from B1. Description: abundance fitness (aPCA) (normalised: wild type 0, dead -1); higher = more abundant; growth selection in yeast, the domain comes from the species named. The note with it: Homo sapiens.
Take PQVPQCKALYAYDAQDTDELSFNASDIIDIIKEDPSGWWTGRLRGKQGLFPNNYVTKI [N25S]: the abundance fitness was -0.088 ± 0.038.
With PQVPQCKALYAYDAQDTDELSFNAADIIDIIKEDPSGWWTGRLRGKQGLFPNNYVTKI [N25A] the figure was -0.129 ± 0.054; with PQVPQCKALYAYDAQDTDELSFNANFIIDIIKEDPSGWWTGRLRGKQGLFPNNYVTKI [D26F], -0.726 ± 0.27; with PQVPQCKALYAYDAQDTDELSFNANKIIDIIKEDPSGWWTGRLRGKQGLFPNNYVTKI [D26K], -1.07 ± 0.3.
The value for PQVPQCKALYAYDAQDTDELSFNANVIIDIIKEDPSGWWTGRLRGKQGLFPNNYVTKI [D26V] was -0.855 ± 0.12; that for PQVPQCKALYAYDAQDTDELSFNANRIIDIIKEDPSGWWTGRLRGKQGLFPNNYVTKI [D26R] was -0.948 ± 0.089; that for PQVPQCKALYAYDAQDTDELSFNANQIIDIIKEDPSGWWTGRLRGKQGLFPNNYVTKI [D26Q] was -0.263 ± 0.11.
With PQVPQCKALYAYDAQDTDELSFNANSIIDIIKEDPSGWWTGRLRGKQGLFPNNYVTKI [D26S] the figure was -0.522 ± 0.065.
Take PQVPQCKALYAYDAQDTDELSFNANYIIDIIKEDPSGWWTGRLRGKQGLFPNNYVTKI [D26Y]: the abundance fitness was -0.776 ± 0.19.
The value for PQVPQCKALYAYDAQDTDELSFNANNIIDIIKEDPSGWWTGRLRGKQGLFPNNYVTKI [D26N] was -0.676 ± 0.2; that for PQVPQCKALYAYDAQDTDELSFNANPIIDIIKEDPSGWWTGRLRGKQGLFPNNYVTKI [D26P] was -0.981 ± 0.42; that for PQVPQCKALYAYDAQDTDELSFNANCIIDIIKEDPSGWWTGRLRGKQGLFPNNYVTKI [D26C] was -0.957 ± 0.28.
With PQVPQCKALYAYDAQDTDELSFNANMIIDIIKEDPSGWWTGRLRGKQGLFPNNYVTKI [D26M] the figure was -0.86 ± 0.12.
With PQVPQCKALYAYDAQDTDELSFNANGIIDIIKEDPSGWWTGRLRGKQGLFPNNYVTKI [D26G] the figure was -0.986 ± 0.094; with PQVPQCKALYAYDAQDTDELSFNANEIIDIIKEDPSGWWTGRLRGKQGLFPNNYVTKI [D26E], -0.015 ± 0.046; with PQVPQCKALYAYDAQDTDELSFNANHIIDIIKEDPSGWWTGRLRGKQGLFPNNYVTKI [D26H], -0.94 ± 0.42.
For PQVPQCKALYAYDAQDTDELSFNANWIIDIIKEDPSGWWTGRLRGKQGLFPNNYVTKI [D26W], the abundance fitness was -0.987 ± 0.2.
The value for PQVPQCKALYAYDAQDTDELSFNYNDIIDIIKEDPSGWWTGRLRGKQGLFPNNYVTKI [A24Y] was -0.528 ± 0.18; that for PQVPQCKALYAYDAQDTDELSFNSNDIIDIIKEDPSGWWTGRLRGKQGLFPNNYVTKI [A24S] was -0.108 ± 0.053.
The value for PQVPQCKALYAYDAQDTDELSFNMNDIIDIIKEDPSGWWTGRLRGKQGLFPNNYVTKI [A24M] was -0.034 ± 0.074; that for PQVPQCKALYAYDAQDTDELSFNKNDIIDIIKEDPSGWWTGRLRGKQGLFPNNYVTKI [A24K] was -0.04 ± 0.045; that for PQVPQCKALYAYDAQDTDELSFNQNDIIDIIKEDPSGWWTGRLRGKQGLFPNNYVTKI [A24Q] was -0.164 ± 0.07.
With PQVPQCKALYAYDAQDTDELSFNINDIIDIIKEDPSGWWTGRLRGKQGLFPNNYVTKI [A24I] the figure was -0.04 ± 0.061.
Take PQVPQCKALYAYDAQDTDELSFNRNDIIDIIKEDPSGWWTGRLRGKQGLFPNNYVTKI [A24R]: the abundance fitness was -0.068 ± 0.044.
With PQVPQCKALYAYDAQDTDELSFNVNDIIDIIKEDPSGWWTGRLRGKQGLFPNNYVTKI [A24V] the figure was -0.05 ± 0.034.
PQVPQCKALYAYDAQDTDELSFNWNDIIDIIKEDPSGWWTGRLRGKQGLFPNNYVTKI [A24W]: the abundance fitness was -0.481 ± 0.077.
The value for PQVPQCKALYAYDAQDTDELSFNNNDIIDIIKEDPSGWWTGRLRGKQGLFPNNYVTKI [A24N] was -0.648 ± 0.29.
For PQVPQCKALYAYDAQDTDELSFNTNDIIDIIKEDPSGWWTGRLRGKQGLFPNNYVTKI [A24T], the abundance fitness is -0.012 ± 0.041.
As for PQVPQCKALYAYDAQDTDELSFNANDIIMIIKEDPSGWWTGRLRGKQGLFPNNYVTKI [D29M], the abundance fitness is -0.243 ± 0.076.
The value for PQVPQCKALYAYDAQDTDELSFNANDIIPIIKEDPSGWWTGRLRGKQGLFPNNYVTKI [D29P] was -1.03 ± 0.41; that for PQVPQCKALYAYDAQDTDELSFNANDIIFIIKEDPSGWWTGRLRGKQGLFPNNYVTKI [D29F] was -0.408 ± 0.062; that for PQVPQCKALYAYDAQDTDELSFNANDIINIIKEDPSGWWTGRLRGKQGLFPNNYVTKI [D29N] was -0.277 ± 0.098.
The value for PQVPQCKALYAYDAQDTDELSFNANDIITIIKEDPSGWWTGRLRGKQGLFPNNYVTKI [D29T] was -0.062 ± 0.039; that for PQVPQCKALYAYDAQDTDELSFNANDIICIIKEDPSGWWTGRLRGKQGLFPNNYVTKI [D29C] was -0.298 ± 0.086; that for PQVPQCKALYAYDAQDTDELSFNANDIIIIIKEDPSGWWTGRLRGKQGLFPNNYVTKI [D29I] was -0.345 ± 0.15.
With PQVPQCKALYAYDAQDTDELSFNANDIIAIIKEDPSGWWTGRLRGKQGLFPNNYVTKI [D29A] the figure was -0.205 ± 0.043.
Consider PQVPQCKALYAYDAQDTDELSFNANDIIVIIKEDPSGWWTGRLRGKQGLFPNNYVTKI [D29V], for which the abundance fitness was -0.303 ± 0.053.
In the case of PQVPQCKALYAYDAQDTDELSFNANDIIKIIKEDPSGWWTGRLRGKQGLFPNNYVTKI [D29K], the abundance fitness was -0.555 ± 0.12.
The value for PQVPQCKALYAYDAQDTDELSFNANDIIEIIKEDPSGWWTGRLRGKQGLFPNNYVTKI [D29E] was -0.072 ± 0.044; that for PQVPQCKALYAYDAQDTDELSFNANDIIYIIKEDPSGWWTGRLRGKQGLFPNNYVTKI [D29Y] was -0.285 ± 0.096; that for PQVPQCKALYAYDAQDTDELSFNANDIIQIIKEDPSGWWTGRLRGKQGLFPNNYVTKI [D29Q] was -0.241 ± 0.067.
Take PQVPQCKALYAYDAQDTDELSFNANDIISIIKEDPSGWWTGRLRGKQGLFPNNYVTKI [D29S]: the abundance fitness is -0.185 ± 0.055.
As to PQVPQCKALYAYDAQDTDELSFNANDIIRIIKEDPSGWWTGRLRGKQGLFPNNYVTKI [D29R], the abundance fitness is -0.387 ± 0.032.
With PQVPQCKALYAYDAQDTDELSFNANDIIHIIKEDPSGWWTGRLRGKQGLFPNNYVTKI [D29H] the figure was -0.193 ± 0.12.
For the variant PQVPQCKALYAYDAQDTDELSFNANDIIGIIKEDPSGWWTGRLRGKQGLFPNNYVTKI [D29G], the abundance fitness is -0.478 ± 0.045.
The value for PQVPQCKALYAYDAQDTDELSFNANDIIWIIKEDPSGWWTGRLRGKQGLFPNNYVTKI [D29W] was -0.312 ± 0.068.
